This is an account of results in patent US20080072349.

Where a chain is given by its changes, count along the chain named.

First the molecules themselves.
B1: Rubisco Activase derived polypeptide 183H12 (protein)
chain: MVKEDKQTDGDRWRGLAYDTSDDQQDITRGKGMVDSVFQAPMGTGTHHAVLSSYEYVSQGLRQYNLDNMMDGFYIAPAFMDKLVVHITKNFLTLPNIKVPLILGIWGGKGQGKSFQCELVMAKMGINPIMMSAGELESGNAGEPAKLIRQRYREAADLIKKGKMCCLFINDLDAGAGRMGGTTQYTVNNQMVNATLMNIADNPTNVQLPGMYNKEENARVPIICTGNDFSTLYAPLIRDGRMEKFYWAPTREDRIGVCKGIFRTDKIKDEDIVRLVDQFPGQSIDFFGALRARVYDDEVRKFVESLGVEKIGKRLVNSREGPPVFEQPEMTYEKLMEYGNMLVMEQENVKRVQLAETYLSQAALGDANADAIGRGTFYGKTEEKEPSKLE
B2: Rubisco Activase derived polypeptide 182B11 (protein)
chain: B1 chain with M131I, R274T
B3: Rubisco Activase derived polypeptide 301H3 (protein)
chain: B1 chain with V257I, K310N
B4: Rubisco Activase derived polypeptide 301C7 (protein)
chain: B1 chain with F168L, V257I, R274T, K310N
B5: wild type Rubisco Activase (Arabidopsis, short form RCA1) (protein)
chain: B1 chain with R274T
B6: Rubisco Activase derived polypeptide 079H6 (protein)
chain: B1 chain with M42T, M131I, R274T, R293K
B7: Rubisco Activase derived polypeptide 214A4 (protein)
chain: B1 chain with M42T
B8: Rubisco Activase derived polypeptide 382D8 (protein)
chain: B1 chain with M131V, V257I, R274T, K310N
B9: Rubisco Activase derived polypeptide 126H4 (protein)
chain: B1 chain with M130R, R274T
B10: Rubisco Activase derived polypeptide 383A12 (protein)
chain: B1 chain with F168L, V257I, K310N
B11: Rubisco Activase derived polypeptide 184B2 (protein)
chain: B1 chain with R274T, K310N

This data set addresses purified deactivated Arabidopsis Rubisco (Ribulose-1,5-bisphosphate carboxylase/oxygenase), O03042.
For B1, the Activation of deactivated Rubisco assay, 25° C., relative activity (%) was determined as 109%; the Activity (3rd tier) 25° C. (µmol CO2 min^-1 mg^-1) was 1.05; the Activity (3rd tier) 40° C. (µmol CO2 min^-1 mg^-1) turned out to be 0.857; the Rubisco activation under catalytic conditions assay, 25° C., relative activity (%) came to 118%. The “specific activity, Rubisco activation under catalytic conditions” value was “The protein displaying the highest specific activity at either 25 °C or 40 °C was the best variant isolated in the first round, 183H12”.

With B2, the Activity (3rd tier) 25° C. (µmol CO2 min^-1 mg^-1) worked out at 0.426 and the Activity (3rd tier) 40° C. (µmol CO2 min^-1 mg^-1) was found to be 0.359.

In the case of B3, the Activation of deactivated Rubisco assay, 25° C., relative activity (%) turned out to be 101%; the Activity (3rd tier) 25° C. (µmol CO2 min^-1 mg^-1) was found to be 0.971; the Activity (3rd tier) 40° C. (µmol CO2 min^-1 mg^-1) came to 0.86; the Rubisco activation under catalytic conditions assay, 25° C., relative activity (%) was 92%.

Turning to B4, the Activation of deactivated Rubisco assay, 25° C., relative activity (%) was found to be 94%; the Activity (3rd tier) 25° C. (µmol CO2 min^-1 mg^-1) was 0.905; the Activity (3rd tier) 40° C. (µmol CO2 min^-1 mg^-1) came to 0.889; the Rubisco activation under catalytic conditions assay, 25° C., relative activity (%) was 96%.

For the protein B5, the Activation of deactivated Rubisco assay, 25° C., relative activity (%) stood at 100%; the Activity (3rd tier) 25° C. (µmol CO2 min^-1 mg^-1) stood at 0.96; the Activity (3rd tier) 40° C. (µmol CO2 min^-1 mg^-1) amounted to 0.634; the Rubisco activation under catalytic conditions assay, 25° C., relative activity (%) is 100%.

In the case of B6, the Activation of deactivated Rubisco assay, 25° C., relative activity (%) was found to be 111%; the Activity (3rd tier) 25° C. (µmol CO2 min^-1 mg^-1) was found to be 1.06; the Activity (3rd tier) 40° C. (µmol CO2 min^-1 mg^-1) is 0.94; the Rubisco activation under catalytic conditions assay, 25° C., relative activity (%) amounted to 105%.

With B7, the Activation of deactivated Rubisco assay, 25° C., relative activity (%) amounted to 111%; the Activity (3rd tier) 25° C. (µmol CO2 min^-1 mg^-1) stood at 1.07; the Activity (3rd tier) 40° C. (µmol CO2 min^-1 mg^-1) is 0.986; the Rubisco activation under catalytic conditions assay, 25° C., relative activity (%) came out at 101%.

As for B8, the Activation of deactivated Rubisco assay, 25° C., relative activity (%) amounted to 105%; the Activity (3rd tier) 25° C. (µmol CO2 min^-1 mg^-1) was 1.01; the Activity (3rd tier) 40° C. (µmol CO2 min^-1 mg^-1) is 0.91; the Rubisco activation under catalytic conditions assay, 25° C., relative activity (%) is 98%.

Consider B9, for which the Activity (3rd tier) 25° C. (µmol CO2 min^-1 mg^-1) is 0.616 and the Activity (3rd tier) 40° C. (µmol CO2 min^-1 mg^-1) worked out at 0.596.

For the protein B10, the Activation of deactivated Rubisco assay, 25° C., relative activity (%) amounted to 93%; the Activity (3rd tier) 25° C. (µmol CO2 min^-1 mg^-1) was 0.891; the Activity (3rd tier) 40° C. (µmol CO2 min^-1 mg^-1) was found to be 0.92; the Rubisco activation under catalytic conditions assay, 25° C., relative activity (%) came out at 96%.

B11 yielded an Activity (3rd tier) 25° C. (µmol CO2 min^-1 mg^-1) of 1.05 and an Activity (3rd tier) 40° C. (µmol CO2 min^-1 mg^-1) of 0.889.
